Where no end group is shown, it is not given here.
Target: human GLP-1 receptor (human, UniProt P43220 24-463)
Assay: cell-based or functional assay

Binder | GLP-1 receptor activation relative to Val^8-GLP-1 (7-37) OH
HVEGTFTSDVSSYLEEQALKEFIAWLVKGRG-OH [Val^8-Glu^22-Leu^25-GLP-1 (7-37) OH] | 2.8 relative to Val^8-GLP-1 (7-37) OH
HVEGTFTSDVSSYLEKQAAKEFIAWLVKGRG-OH [Val^8-Lys^22-GLP-1 (7-37) OH] | 1.3 relative to Val^8-GLP-1 (7-37) OH
HVEGTFTSDVSSYLESQAAKEFIAWLVKGRG-OH [Val^8-Ser^22-GLP-1 (7-37) OH] | 1.1 relative to Val^8-GLP-1 (7-37) OH
HVEGTFTSDVSSYLEGQAAEEFIAWLVKGRG-OH [Val^8-Glu^26-GLP-1 (7-37) OH] | 3.3 relative to Val^8-GLP-1 (7-37) OH
HVEGTFTSDFSSYLEEQAAKEFIAWLVKGRG-OH [Val^8-Phe^16-Glu^22-GLP-1 (7-37) OH] | 2.3 relative to Val^8-GLP-1 (7-37) OH
HVEGTFTSDVSSYFEEQAAKEFIAWLVKGRG-OH [Val^8-Phe^20-Glu^22-GLP-1 (7-37) OH] | 2.7 relative to Val^8-GLP-1 (7-37) OH
HVEGTYTSDVSSYLEEQAAKEFIAWLVKGRG-OH [Val^8-Tyr^12-Glu^22-GLP-1 (7-37) OH] | 2.7 relative to Val^8-GLP-1 (7-37) OH
HVEGTFTSDWSSYLEEQAVKEFIAWLIKGRG-OH [Val^8-Trp^16-Glu^22-Val^25-Ile^33-GLP-1 (7-37) OH] | 5 relative to Val^8-GLP-1 (7-37) OH
HVEGTFTSDVSIYLEEQAAKEFIAWLVKGRG-OH [Val^8-Ile^18-Glu^22-GLP-1 (7-37) OH] | 4 relative to Val^8-GLP-1 (7-37) OH
HVEGTFTSDASSYLEGQAAKEFIAWLVKGRG-OH [Val^8-Ala^16-GLP-1 (7-37) OH] | 0.25 relative to Val^8-GLP-1 (7-37) OH
HVEGTFTSDYSSFLEGQAAKEFIAWLVKGRG-OH [Val^8-Tyr^16-Phe^19-GLP-1 (7-37) OH] | 2.8 relative to Val^8-GLP-1 (7-37) OH
HVEGTFTSDVSFYLEEQAAKEFIAWLVKGRG-OH [Val^8-Phe^18-Glu^22-GLP-1 (7-37) OH] | 2 relative to Val^8-GLP-1 (7-37) OH
HVEGTFTSDESSYLEGQAAKEFIAWLVKGRG-OH [Val^8-Glu^16-GLP-1 (7-37) OH] | 0.1 relative to Val^8-GLP-1 (7-37) OH
HVEGTFTSDVSSYLEHQAAKEFIAWLVKGRG-OH [Val^8-His^22-GLP-1 (7-37) OH] | 0.3 relative to Val^8-GLP-1 (7-37) OH
HGEGTFTSDVSSYLEGQAAKEFIAWLVKGRG-OH [Gly^8-GLP-1 (7-37) OH] | 1.7 relative to Val^8-GLP-1 (7-37) OH
HVEGTFTSDVSSYLEGQAAKEFIAWLAKGRG-OH [Val^8-Ala^33-GLP-1 (7-37) OH] | 0.2 relative to Val^8-GLP-1 (7-37) OH
HVEGTFTSDVSSYLEAQAAKEFIAWLVKGRG-OH [Val^8-Ala^22-GLP-1 (7-37) OH] | 1.2 relative to Val^8-GLP-1 (7-37) OH
HVEGTFTSDISSYLEEQAAKEFIAWLVKGRG-OH [Val^8-Ile^16-Glu^22-GLP-1 (7-37) OH] | 3.3 relative to Val^8-GLP-1 (7-37) OH
HVEGTFTSDVSSYLEGQALKEFIAWLVKGRG-OH [Val^8-Leu^25-GLP-1 (7-37) OH] | 0.5 relative to Val^8-GLP-1 (7-37) OH
HVEGTFTSDLSSYLEGQAAKEFIAWLVKGRG-OH [Val^8-Leu^16-GLP-1 (7-37) OH] | 1.1 relative to Val^8-GLP-1 (7-37) OH
HVEGTFTSDVSSYLEGQAAKEFIAWLVKERG-OH [Val^8-Glu^35-GLP-1 (7-37) OH] | 0.3 relative to Val^8-GLP-1 (7-37) OH
HVEGTFTSDVSSYLEEQAAKIFIAWLVKGRG-OH [Val^8-Glu^22-Ile^27-GLP-1 (7-37) OH] | 2 relative to Val^8-GLP-1 (7-37) OH
HVEGTFTSDVSSYLEGKAAKEFIAWLVKGRG-OH [Val^8-Lys^23-GLP-1 (7-37) OH] | 0.4 relative to Val^8-GLP-1 (7-37) OH
HVEGTFTSDVSSYLEEQAAKEFIAWLVKGRH-OH [Val^8-Glu^22-His^37-GLP-1 (7-37) OH] | 4.7 relative to Val^8-GLP-1 (7-37) OH
HVEGTFTSDVSSYLEGQAAHEFIAWLVKGRG-OH [Val^8-His^26-GLP-1 (7-37) OH] | 3.5 relative to Val^8-GLP-1 (7-37) OH
HVEGTFTSDVSSWLEEQAAKEFIAWLVKGRG-OH [Val^8-Trp^19-Glu^22-GLP-1 (7-37) OH] | 3.2 relative to Val^8-GLP-1 (7-37) OH
HVEGTFTSDVSSYLEGQAAKEFISWLVKGRG-OH [Val^8-Ser^30-GLP-1 (7-37) OH] | 0.4 relative to Val^8-GLP-1 (7-37) OH

Binder | GLP-1 receptor activation relative to Val^8-GLP-1 (7-37) OH
HVEGTFTSDYSSWLEEQAAKEFIAWLVKGRG-OH [Val^8-Tyr^16-Trp^19-Glu^22-GLP-1 (7-37) OH] | 3.5 relative to Val^8-GLP-1 (7-37) OH
HVEGTFTSDVSKYLEEQAAKEFIAWLVKGRG-OH [Val^8-Lys^18-Glu^22-GLP-1 (7-37) OH] | 2.5 relative to Val^8-GLP-1 (7-37) OH
HVEGTFTSDVSSYLEEQAIKEFIAWLVKGRG-OH [Val^8-Glu^22-Ile^25-GLP-1 (7-37) OH] | 3.1 relative to Val^8-GLP-1 (7-37) OH
HVEGTFTSDVSSYLEEQAAKEFIAWLVKGRG-OH [Val^8-Glu^22-GLP-1 (7-37) OH] | 2.9 relative to Val^8-GLP-1 (7-37) OH
HVEGTFTSDVSSYLEKQAAKEFIAWLVKGR-NH2 [Val^8-Lys^22-GLP-1 (7-36) NH2] | 1.2 relative to Val^8-GLP-1 (7-37) OH
HGEGHFTSDVSSYLEGQAAKEFIAWLVKGRG-OH [Gly^8-His^11-GLP-1 (7-37) OH] | 0.6 relative to Val^8-GLP-1 (7-37) OH
HVEGTWTSDVSSYLEEQAAKEFIAWLVKGRG-OH [Val^8-Trp^12-Glu^22-GLP-1 (7-37) OH] | 1.7 relative to Val^8-GLP-1 (7-37) OH
HVEGTFTSDVSSYLEGQAAKEFIAWLVKPRG-OH [Val^8-Pro^35-GLP-1 (7-37) OH] | 0.2 relative to Val^8-GLP-1 (7-37) OH
HVEGTFTSDVSSYLEGQAAKEFIAWLVKHRG-OH [Val^8-His^35-GLP-1 (7-37) OH] | 0.9 relative to Val^8-GLP-1 (7-37) OH
HVEGTFTSDVSSYLEDQAAKEFIAWLVKGRG-OH [Val^8-Asp^22-GLP-1 (7-37) OH] | 0.9 relative to Val^8-GLP-1 (7-37) OH
HVEGTFTSDVSSYLEGQAAKEFIDWLVKGRG-OH [Val^8-Asp^30-GLP-1 (7-37) OH] | 0.3 relative to Val^8-GLP-1 (7-37) OH
HVEGTFTSDVSSYLEGQAAKEFIAWLVKGHG-OH [Val^8-His^36-GLP-1 (7-37) OH] | 0.5 relative to Val^8-GLP-1 (7-37) OH
HVEGTYTSDVSSYLEGQAAKEFIAWLVKGR-NH2 [Val^8-Tyr^12-GLP-1 (7-36) NH2] | 1.1 relative to Val^8-GLP-1 (7-37) OH
HVEGTWTSDVSSYLEGQAAKEFIAWLVKGRG-OH [Val^8-Trp^12-GLP-1 (7-37) OH] | 1.1 relative to Val^8-GLP-1 (7-37) OH
HVEGTFTSDVSSYLEGQAAKEFIAWLVKGEG-OH [Val^8-Glu^36-GLP-1 (7-37) OH] | 0.2 relative to Val^8-GLP-1 (7-37) OH
HVEGTFTSDVSSYLEGQAAKEFIAWLVEGRG-OH [Val^8-Glu^34-GLP-1 (7-37) OH] | 0.4 relative to Val^8-GLP-1 (7-37) OH
HGEGTFTSDVSSYLEGQAAKEFIEWLVKGRG-OH [Gly^8-Glu^30-GLP-1 (7-37) OH] | 0.6 relative to Val^8-GLP-1 (7-37) OH
HVEGTFTSDVSSYLEGQAAKEFIHWLVKGRG-OH [Val^8-His^30-GLP-1 (7-37) OH] | 0.4 relative to Val^8-GLP-1 (7-37) OH
HVEGTFTSDLSSYLEEQAAKEFIAWLVKGRG-OH [Val^8-Leu^16-Glu^22-GLP-1 (7-37) OH] | 4.3 relative to Val^8-GLP-1 (7-37) OH
HAEGTFTSDVSSYLEQQAAKEFIAWLVKGRG-OH [Gln^22-GLP-1 (7-37) OH] | 0.9 relative to Val^8-GLP-1 (7-37) OH
HVEGTFTSDVSSYLEGQAAKHFIAWLVKGRG-OH [Val^8-His^27-GLP-1 (7-37) OH] | 0.8 relative to Val^8-GLP-1 (7-37) OH
HVEGTYTSDYSSYLEGQAAKEFIAWLVKGRG-OH [Val^8-Tyr^12-Tyr^16-GLP-1 (7-37) OH] | 1.5 relative to Val^8-GLP-1 (7-37) OH
HVDGIFTSDYSSYLEEQAAKEFIAWLVKGRG-OH [Val^8-Asp^9-Ile^11-Tyr^16-Glu^22-GLP-1 (7-37) OH] | 4.3 relative to Val^8-GLP-1 (7-37) OH
HVEGTFTSDWSSYLEEQAVKEFIAWLVKGRG-OH [Val^8-Trp^16-Glu^22-Val^25-GLP-1 (7-37) OH] | 4.4 relative to Val^8-GLP-1 (7-37) OH
HVEGTFTSDWSSYLEEQAAKEFIAWLIKGRG-OH [Val^8-Trp^16-Glu^22-Ile^33-GLP-1 (7-37) OH] | 4.1 relative to Val^8-GLP-1 (7-37) OH
HVEGTFTSDVSSYKEGQAAKEFIAWLVKGRG-OH [Val^8-Lys^20-GLP-1 (7-37) OH] | 0.7 relative to Val^8-GLP-1 (7-37) OH
HVEGTFTSDVSSFLEEQAAKEFIAWLVKGRG-OH [Val^8-Phe^19-Glu^22-GLP-1 (7-37) OH] | 1.5 relative to Val^8-GLP-1 (7-37) OH
